Assay results taken from US20140087995A1 (published 2014).
Numbered stars: 1 amine (or outer) side, 2 acyl side, 3 side chain; on linkers, the order of the positions; unused ones are H or OH. Bridge positions count the residues as written; N and C are the ends. Side chains are listed from the residue outwards. Ends that are not written are not given here. * marks the point of attachment. C20 diacid = O=C(O)CCCCCCCCCCCCCCCCCCC(=O)*; γGlu = O=C(O)[C@H](CCC(=O)[*:2])N[*:1]; AEEA = NCCOCCOCC(=O)O

T1: human calcitonin receptor (human, UniProt P30988 25-474)
T1 construct: whole, on cells; Assayed as cell membranes of BHK tk'ts 13 cells stably transfected with the human calcitonin receptor (Assay VII); also called hCTR; hCT
T1 sequence (looked up): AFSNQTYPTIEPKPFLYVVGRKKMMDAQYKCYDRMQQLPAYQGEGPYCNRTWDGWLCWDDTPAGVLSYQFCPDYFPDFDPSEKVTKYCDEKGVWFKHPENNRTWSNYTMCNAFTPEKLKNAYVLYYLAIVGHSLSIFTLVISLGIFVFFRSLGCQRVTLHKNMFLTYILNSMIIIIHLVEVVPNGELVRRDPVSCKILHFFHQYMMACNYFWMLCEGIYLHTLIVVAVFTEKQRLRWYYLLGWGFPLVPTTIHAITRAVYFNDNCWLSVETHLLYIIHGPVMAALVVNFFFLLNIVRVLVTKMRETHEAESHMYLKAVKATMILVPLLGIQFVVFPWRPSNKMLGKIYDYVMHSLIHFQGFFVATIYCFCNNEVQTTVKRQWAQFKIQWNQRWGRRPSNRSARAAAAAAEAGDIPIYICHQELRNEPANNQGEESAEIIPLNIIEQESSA

B1: N^ε1-[2-[2-[2-[[(4S)-4-carboxy-4-(19-carboxynonadecanoylamino)butanoyl]amino]ethoxy]ethoxy]acetyl]-[Gly14,Arg17,Pro21,Pro27,Pro31]-h-amylin (peptide)
peptide: K([AEEA-γGlu-C20 diacid])CNTATCATQRLAGFLRHSSPNFGAIPSSTPVGSNTY-NH2
modifications: disulfide 2-7; N-terminus assumed
SMILES: CC[C@H](C)[C@H](NC(=O)[C@H](C)NC(=O)CNC(=O)[C@H](Cc1ccccc1)NC(=O)[C@H](CC(N)=O)NC(=O)[C@@H]1CCCN1C(=O)[C@H](CO)NC(=O)[C@H](CO)NC(=O)[C@H](Cc1c[nH]cn1)NC(=O)[C@H](CCCNC(=N)N)NC(=O)[C@H](CC(C)C)NC(=O)[C@H](Cc1ccccc1)NC(=O)CNC(=O)[C@H](C)NC(=O)[C@H](CC(C)C)NC(=O)[C@H](CCCNC(=N)N)NC(=O)[C@H](CCC(N)=O)NC(=O)[C@@H](NC(=O)[C@H](C)NC(=O)[C@@H]1CSSC[C@H](NC(=O)[C@@H](N)CCCCNC(=O)COCCOCCNC(=O)CC[C@H](NC(=O)CCCCCCCCCCCCCCCCCCC(=O)O)C(=O)O)C(=O)N[C@@H](CC(N)=O)C(=O)N[C@@H]([C@@H](C)O)C(=O)N[C@@H](C)C(=O)N[C@@H]([C@@H](C)O)C(=O)N1)[C@@H](C)O)C(=O)N1CCC[C@H]1C(=O)N[C@@H](CO)C(=O)N[C@@H](CO)C(=O)N[C@H](C(=O)N1CCC[C@H]1C(=O)N[C@H](C(=O)NCC(=O)N[C@@H](CO)C(=O)N[C@@H](CC(N)=O)C(=O)N[C@H](C(=O)N[C@@H](Cc1ccc(O)cc1)C(N)=O)[C@@H](C)O)C(C)C)[C@@H](C)O
notes: also called compound 71
B2: N^ε1-[2-[2-[2-[[(4S)-4-carboxy-4-(19-carboxynonadecanoylamino)butanoyl]amino]ethoxy]ethoxy]acetyl]-[His14,Arg17,Pro21,Pro27,His34]-h-amylin (peptide)
peptide: K([AEEA-γGlu-C20 diacid])CNTATCATQRLAHFLRHSSPNFGAIPSSTNVGHNTY-NH2
modifications: disulfide 2-7; N-terminus assumed
SMILES: CC[C@H](C)[C@H](NC(=O)[C@H](C)NC(=O)CNC(=O)[C@H](Cc1ccccc1)NC(=O)[C@H](CC(N)=O)NC(=O)[C@@H]1CCCN1C(=O)[C@H](CO)NC(=O)[C@H](CO)NC(=O)[C@H](Cc1c[nH]cn1)NC(=O)[C@H](CCCNC(=N)N)NC(=O)[C@H](CC(C)C)NC(=O)[C@H](Cc1ccccc1)NC(=O)[C@H](Cc1c[nH]cn1)NC(=O)[C@H](C)NC(=O)[C@H](CC(C)C)NC(=O)[C@H](CCCNC(=N)N)NC(=O)[C@H](CCC(N)=O)NC(=O)[C@@H](NC(=O)[C@H](C)NC(=O)[C@@H]1CSSC[C@H](NC(=O)[C@@H](N)CCCCNC(=O)COCCOCCNC(=O)CC[C@H](NC(=O)CCCCCCCCCCCCCCCCCCC(=O)O)C(=O)O)C(=O)N[C@@H](CC(N)=O)C(=O)N[C@@H]([C@@H](C)O)C(=O)N[C@@H](C)C(=O)N[C@@H]([C@@H](C)O)C(=O)N1)[C@@H](C)O)C(=O)N1CCC[C@H]1C(=O)N[C@@H](CO)C(=O)N[C@@H](CO)C(=O)N[C@H](C(=O)N[C@@H](CC(N)=O)C(=O)N[C@H](C(=O)NCC(=O)N[C@@H](Cc1c[nH]cn1)C(=O)N[C@@H](CC(N)=O)C(=O)N[C@H](C(=O)N[C@@H](Cc1ccc(O)cc1)C(N)=O)[C@@H](C)O)C(C)C)[C@@H](C)O
notes: also called compound 80
B3: N^ε1-[2-[2-[2-[[(4S)-4-carboxy-4-(19-carboxynonadecanoylamino)butanoyl]amino]ethoxy]ethoxy]acetyl]-[His14,Arg17,Pro21,Pro27,Pro34]-h-amylin (peptide)
peptide: K([AEEA-γGlu-C20 diacid])CNTATCATQRLAHFLRHSSPNFGAIPSSTNVGPNTY-NH2
modifications: disulfide 2-7; N-terminus assumed
SMILES: CC[C@H](C)[C@H](NC(=O)[C@H](C)NC(=O)CNC(=O)[C@H](Cc1ccccc1)NC(=O)[C@H](CC(N)=O)NC(=O)[C@@H]1CCCN1C(=O)[C@H](CO)NC(=O)[C@H](CO)NC(=O)[C@H](Cc1c[nH]cn1)NC(=O)[C@H](CCCNC(=N)N)NC(=O)[C@H](CC(C)C)NC(=O)[C@H](Cc1ccccc1)NC(=O)[C@H](Cc1c[nH]cn1)NC(=O)[C@H](C)NC(=O)[C@H](CC(C)C)NC(=O)[C@H](CCCNC(=N)N)NC(=O)[C@H](CCC(N)=O)NC(=O)[C@@H](NC(=O)[C@H](C)NC(=O)[C@@H]1CSSC[C@H](NC(=O)[C@@H](N)CCCCNC(=O)COCCOCCNC(=O)CC[C@H](NC(=O)CCCCCCCCCCCCCCCCCCC(=O)O)C(=O)O)C(=O)N[C@@H](CC(N)=O)C(=O)N[C@@H]([C@@H](C)O)C(=O)N[C@@H](C)C(=O)N[C@@H]([C@@H](C)O)C(=O)N1)[C@@H](C)O)C(=O)N1CCC[C@H]1C(=O)N[C@@H](CO)C(=O)N[C@@H](CO)C(=O)N[C@H](C(=O)N[C@@H](CC(N)=O)C(=O)N[C@H](C(=O)NCC(=O)N1CCC[C@H]1C(=O)N[C@@H](CC(N)=O)C(=O)N[C@H](C(=O)N[C@@H](Cc1ccc(O)cc1)C(N)=O)[C@@H](C)O)C(C)C)[C@@H](C)O
notes: also called compound 68
B4: N^ε1-[2-[2-[2-[[(4S)-4-carboxy-4-(19-carboxynonadecanoylamino)butanoyl]amino]ethoxy]ethoxy]acetyl]-[His14,Arg17,Pro21,Pro27,Pro31]-h-amylin (peptide)
peptide: K([AEEA-γGlu-C20 diacid])CNTATCATQRLAHFLRHSSPNFGAIPSSTPVGSNTY-NH2
modifications: disulfide 2-7; N-terminus assumed
SMILES: CC[C@H](C)[C@H](NC(=O)[C@H](C)NC(=O)CNC(=O)[C@H](Cc1ccccc1)NC(=O)[C@H](CC(N)=O)NC(=O)[C@@H]1CCCN1C(=O)[C@H](CO)NC(=O)[C@H](CO)NC(=O)[C@H](Cc1c[nH]cn1)NC(=O)[C@H](CCCNC(=N)N)NC(=O)[C@H](CC(C)C)NC(=O)[C@H](Cc1ccccc1)NC(=O)[C@H](Cc1c[nH]cn1)NC(=O)[C@H](C)NC(=O)[C@H](CC(C)C)NC(=O)[C@H](CCCNC(=N)N)NC(=O)[C@H](CCC(N)=O)NC(=O)[C@@H](NC(=O)[C@H](C)NC(=O)[C@@H]1CSSC[C@H](NC(=O)[C@@H](N)CCCCNC(=O)COCCOCCNC(=O)CC[C@H](NC(=O)CCCCCCCCCCCCCCCCCCC(=O)O)C(=O)O)C(=O)N[C@@H](CC(N)=O)C(=O)N[C@@H]([C@@H](C)O)C(=O)N[C@@H](C)C(=O)N[C@@H]([C@@H](C)O)C(=O)N1)[C@@H](C)O)C(=O)N1CCC[C@H]1C(=O)N[C@@H](CO)C(=O)N[C@@H](CO)C(=O)N[C@H](C(=O)N1CCC[C@H]1C(=O)N[C@H](C(=O)NCC(=O)N[C@@H](CO)C(=O)N[C@@H](CC(N)=O)C(=O)N[C@H](C(=O)N[C@@H](Cc1ccc(O)cc1)C(N)=O)[C@@H](C)O)C(C)C)[C@@H](C)O
notes: also called compound 61
B5: N^ε1-[2-[2-[2-[[(4S)-4-carboxy-4-(19-carboxynonadecanoylamino)butanoyl]amino]ethoxy]ethoxy]acetyl]-[Lys14,Arg17,Pro21,Pro27,Pro31]-h-amylin (peptide)
peptide: K([AEEA-γGlu-C20 diacid])CNTATCATQRLAKFLRHSSPNFGAIPSSTPVGSNTY-NH2
modifications: disulfide 2-7; N-terminus assumed
SMILES: CC[C@H](C)[C@H](NC(=O)[C@H](C)NC(=O)CNC(=O)[C@H](Cc1ccccc1)NC(=O)[C@H](CC(N)=O)NC(=O)[C@@H]1CCCN1C(=O)[C@H](CO)NC(=O)[C@H](CO)NC(=O)[C@H](Cc1c[nH]cn1)NC(=O)[C@H](CCCNC(=N)N)NC(=O)[C@H](CC(C)C)NC(=O)[C@H](Cc1ccccc1)NC(=O)[C@H](CCCCN)NC(=O)[C@H](C)NC(=O)[C@H](CC(C)C)NC(=O)[C@H](CCCNC(=N)N)NC(=O)[C@H](CCC(N)=O)NC(=O)[C@@H](NC(=O)[C@H](C)NC(=O)[C@@H]1CSSC[C@H](NC(=O)[C@@H](N)CCCCNC(=O)COCCOCCNC(=O)CC[C@H](NC(=O)CCCCCCCCCCCCCCCCCCC(=O)O)C(=O)O)C(=O)N[C@@H](CC(N)=O)C(=O)N[C@@H]([C@@H](C)O)C(=O)N[C@@H](C)C(=O)N[C@@H]([C@@H](C)O)C(=O)N1)[C@@H](C)O)C(=O)N1CCC[C@H]1C(=O)N[C@@H](CO)C(=O)N[C@@H](CO)C(=O)N[C@H](C(=O)N1CCC[C@H]1C(=O)N[C@H](C(=O)NCC(=O)N[C@@H](CO)C(=O)N[C@@H](CC(N)=O)C(=O)N[C@H](C(=O)N[C@@H](Cc1ccc(O)cc1)C(N)=O)[C@@H](C)O)C(C)C)[C@@H](C)O
notes: also called compound 74
B6: N^ε1-[2-[2-[2-[[(4S)-4-carboxy-4-(19-carboxynonadecanoylamino)butanoyl]amino]ethoxy]ethoxy]acetyl]-[His14,Arg17,Pro21,Pro27,Arg34]-h-amylin (peptide)
peptide: K([AEEA-γGlu-C20 diacid])CNTATCATQRLAHFLRHSSPNFGAIPSSTNVGRNTY-NH2
modifications: disulfide 2-7; N-terminus assumed
SMILES: CC[C@H](C)[C@H](NC(=O)[C@H](C)NC(=O)CNC(=O)[C@H](Cc1ccccc1)NC(=O)[C@H](CC(N)=O)NC(=O)[C@@H]1CCCN1C(=O)[C@H](CO)NC(=O)[C@H](CO)NC(=O)[C@H](Cc1c[nH]cn1)NC(=O)[C@H](CCCNC(=N)N)NC(=O)[C@H](CC(C)C)NC(=O)[C@H](Cc1ccccc1)NC(=O)[C@H](Cc1c[nH]cn1)NC(=O)[C@H](C)NC(=O)[C@H](CC(C)C)NC(=O)[C@H](CCCNC(=N)N)NC(=O)[C@H](CCC(N)=O)NC(=O)[C@@H](NC(=O)[C@H](C)NC(=O)[C@@H]1CSSC[C@H](NC(=O)[C@@H](N)CCCCNC(=O)COCCOCCNC(=O)CC[C@H](NC(=O)CCCCCCCCCCCCCCCCCCC(=O)O)C(=O)O)C(=O)N[C@@H](CC(N)=O)C(=O)N[C@@H]([C@@H](C)O)C(=O)N[C@@H](C)C(=O)N[C@@H]([C@@H](C)O)C(=O)N1)[C@@H](C)O)C(=O)N1CCC[C@H]1C(=O)N[C@@H](CO)C(=O)N[C@@H](CO)C(=O)N[C@H](C(=O)N[C@@H](CC(N)=O)C(=O)N[C@H](C(=O)NCC(=O)N[C@@H](CCCNC(=N)N)C(=O)N[C@@H](CC(N)=O)C(=O)N[C@H](C(=O)N[C@@H](Cc1ccc(O)cc1)C(N)=O)[C@@H](C)O)C(C)C)[C@@H](C)O
notes: also called compound 84

Each binder was assayed against T1, human calcitonin receptor (assay: IC50 at hCTR divided by IC50 at hAmylin-R (SPA competition assays V and VII)).
How it was run: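 Scintillation proximity competition binding on cell membranes at 35 ng/μL with SPA beads, in 50 mM Hepes pH 7.4, 1 mM CaCl2, 5 mM MgCl₂, 0.1% OA, 0.02% Tween20. Incubated 120 min at 25° C with shaking. IC₅₀ from one-site competition fit.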

Row | Ratio hCT/hAmylin binding | Binder
1 | 32 | B1
2 | 68.1 | B2
3 | 64.4 | B3
4 | 66.7 | B4
5 | 101 | B5
6 | 120 | B6

These binders were tested against T1, human calcitonin receptor (assay: SPA competition vs 125I-calcitonin, membranes of BHK cells with human calcitonin receptor (Assay VII)).
How it was run: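 BHK hCTR membranes 35 ng/μL + SPA beads 0.05 mg/well; buffer 50 mM Hepes pH 7.4, 1 mM CaCl2, 5 mM MgCl₂, 0.1% OA, 0.02% Tween20. 120 min, 25° C., shaking. Scintillation count; IC50 by one-site binding competition.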

Row | IC50 [nM] | Binder
7 | 1.53 | B1
8 | 19.8 | B2
9 | 5.66 | B3
10 | 8.11 | B4
11 | 79.9 | B5
12 | 88.9 | B6
